Assay results taken from paper PMC5531254.

How the values were obtained:
PIH1D1 [1] = molecular target: PIH1D1 (UniProt Q9NWS0); experiment: GST pull-down with FLAG-purified MRE11; conditions: reference: FLAG MRE11 wild type
PIH1D1 [2] = molecular target: PIH1D1 (UniProt Q9NWS0); experiment: anti-FLAG co-IP, MYC blot; conditions: reference: FLAG MRE11 wild type

MRE11 (from UniProt P49959) M1 (S558A/S561A)
binding against the reference (PIH1D1 [1]; sites S558,S561): weaker
binding against the reference (PIH1D1 [2]; sites S558,S561): weaker

MRE11 (from UniProt P49959) M3 (S688A/S689A)
binding against the reference (PIH1D1 [1]; sites S688,S689): weaker
binding against the reference (PIH1D1 [2]; sites S688,S689): weaker
